Results on 2 proteins are retold here after PMC3070753, “Biochemical and Structural Properties of Cyanases from Arabidopsis thaliana and Oryza sativa” (PLoS ONE, 2011).

What is called stoichiometry N is a count of units in the complex or per binding partner. A word on the Km: it is the substrate concentration at which the rate is half of its maximum.

Series [1] concerns the molecule itself. The series is described as follows: SEC; His-tagged proteins after Ni2+ affinity chromatography on a Superdex 200 10/300 GL column; molecular weight calculated against high molecular weight standards.
Substrate in series [2]: N#CO
The series is described as follows: purified protein. The conditions noted are these: 5 mM NaHCO3, pH 7.7, 27°C. It counts as biochemical, Oryza sativa.

Substrate in series [3]: O=C(O)O
Nature of the series: purified protein. Conditions: 5 mM KCNO, pH 7.7, 27°C.

Substrate in series [4]: N#CO
Nature of the series: purified protein. It counts as biochemical, Arabidopsis thaliana. Conditions: 5 mM NaHCO3, pH 7.7, 27°C.

B1: His-tagged recombinant OsCYN (enzyme, Oryza sativa, UniProt Q9FWK4 1-168, looked up)
chain: MEGGGGERAAGVVRRLMAAKAESRKSFSEIGEEAGLTNVYVAQLLRRQAQLKPETAPALRAAVPGLTDDLVALMMEPPFRSYHPDIVHEPAIYRLNEAVMHFGESIKEIINEEFGDGIMSAIDFYCSVDKVQGADGKDRVVVTFDGKYLPYSEQRSDHMMSRLTRKTS
notes: cyanase (OsCYN) of Oryza sativa (cv. Zhonghua 11), 168 aa, NP_001064827; cDNA amplified with primers from the start codon to the stop codon, cloned into pET15b; pET15b construct (BamH I and Xho I sites); calculated monomer with tag 22.0 kDa; also called His:OsCYN; source: E. coli BL21 (DE3), purified (Ni2+ chelating column, Superdex 200); copies: 10
Consider B1, for which the “stoichiometry N” value in series [1] was 10. For the same protein, the Michaelis-Menten constant (Km) in series [2] came out at 7380 µM; in series [3], 630 µM.

B2: His-tagged recombinant AtCYN (enzyme, Arabidopsis thaliana, UniProt O22683 1-168, looked up)
chain: MEAAKKQSVTNQLLAVKSASGKTFSQLAAETGLTNVYVAQLLRRQAQLKPDTVPKLKEALPALTDELIGDMMSPPWRSYDPNLIQEPTIYRLNEAVMHFGESIKEIINEDFGDGIMSAIDFYCSVDKIKGVDGNNRVVVTLDGKYLSHSEQRTENMVSRLNLKGGTSE
notes: cyanase (AtCYN) of Arabidopsis thaliana, 168 aa, NP_188991; cDNA amplified with primers from the start codon to the stop codon, cloned into pET15b; pET15b construct (BamH I and Xho I sites); calculated monomer with tag 21.9 kDa; also called His:AtCYN; source: E. coli BL21 (DE3), purified (Ni2+ chelating column, Superdex 200); copies: 10
Take B2: the “stoichiometry N” value in series [1] is 10. The Km in series [4] worked out at 940 µM; in series [3], 790 µM.
